Assay results taken from patent publication US20240352111A1 (Regeneron, published 2024).
Residue numbers refer to the chain shown, from its start. Each block holds one binder with its values, some of them ahead of it.

Columns and labels:
[1] = target: T1, MfArtemin-MMH (cynomolgous monkey (Macaca fascicularis)); test: blocking ELISA, antibody blocks 400 pM mfARTN.mmh binding to plate-coated hGFRa3.hFc
T1 construct: also called mfARTN.mmh; mfARTN (A108-G22).mmh
T1 chain: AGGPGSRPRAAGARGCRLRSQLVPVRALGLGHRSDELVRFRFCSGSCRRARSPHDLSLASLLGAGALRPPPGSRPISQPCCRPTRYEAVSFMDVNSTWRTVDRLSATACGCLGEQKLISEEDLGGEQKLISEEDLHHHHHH
Description: (§1) Experiments were carried out using the following procedures. Plates were coated with hGFRa3.hFc at 2 μg/ml in PBS on a 96-well microtiter plate at 4° C. overnight for all three assays. […] In other microtiter plates, a constant amount of either 75 pM hARTN.mmh, 400 pM mfARTN.mmh, or 150 pM msARTN.mmh were separately bound with anti-ARTN antibodies and an irrelevant IgG4 antibody control at a serial dilution series from 0.0017 nM to 100 nM in PBS+0.5% BSA. After a one-hour incubation, the mixture solutions were transferred to microtiter plates coated with hGFRa3.hFc. After one hour of incubation at RT, the wells were washed with PBST, and plate-bound ARTN was detected with an anti-penta-His antibody conjugated with horseradish peroxidase (HRP) (Qiagen). The plates were then developed using TMB substrate solution (BD Biosciences, #555214) according to manufacturer's recommendation and absorbance at 450 nm was measured on a Victor X5 plate reader.
(§2) Binding data were analyzed using a sigmoidal dose-response model within Prism™ software (GraphPad). […] If the calculated IC50 value was below the LLOA, less than LLOA was reported. Percent blocking at 100 nM antibody was calculated based on the background-corrected binding signal observed at the highest antibody concentration tested using the formula listed below and reported for all tested antibodies: […]

[2] = target: T1, MfArtemin-MMH; test: SPR Biacore T200, MfArtemin-MMH captured by anti-myc mAb, mAb injected, 25 C
Description: (§3) The equilibrium dissociation constant (KD) for Artemin binding to each of Artemin monoclonal antibodies (mAbs) H4H33331P, H4H33335P, H4H33336P, and H4H33349P was determined using a real-time surface plasmon resonance Biacore T200 biosensor. All binding studies were performed in 10 mM HEPES, 150 mM NaCl, 3 mM EDTA, and 0.05% v/v Surfactant Tween-20, pH 7.4 (HBS-ET) running buffer at 25° C. The Biacore CM4 sensor chip surface was first derivatized by amine coupling with anti-myc mAb to capture hArtemin-MMH, MfArtemin-MMH, or mArtemin-MMH. Different concentrations of Artemin mAbs (60-2.2 nM, 3-fold serial dilution) prepared in […] running buffer were injected over the Artemin-captured surfaces for 3 min at a flow rate of 50 μL/min and their dissociation in HBS-ET running buffer was monitored for 5 minutes. At the end of each cycle, the Artemin-captured surfaces were regenerated using a 6 sec injection of 20 mM phosphoric acid.
(§4) The association rate (kₐ) and dissociation rate (kd) were determined by fitting the real-time binding sensorgrams to a 1:1 binding model with mass transport limitation using Scrubber 2.0c curve-fitting software. Binding dissociation equilibrium constant (KD) and dissociative half-life (t½) were calculated from the kinetic rates as: KD (M)=kd/kₐ, and t_{1/2} (min)=[In2/(60*kd)].

[3] = target: T2, hArtemin-MMH (human); test: blocking ELISA, antibody blocks 75 pM hARTN.mmh binding to plate-coated hGFRa3.hFc
T2 construct: also called hARTN.mmh; hARTN (A108-G220).mmh
T2 chain: T1 chain with P8A, I76V
Description: as §1, §2

[4] = target: T1, MfArtemin-MMH; test: BLI (Octet HTX), mAb captured on AHC tips, artemin at 3.75 nM, 25 C
Description: (§5) The entire experiment was performed at 25° C. in 10 mM HEPES, 150 mM NaCl, 3 mM EDTA, 0.02% NaN3 and 0.05% v/v Surfactant Tween-20, 1 mg/mL BSA, pH7.4 (HBS-EBT) buffer with the plate shaking at a speed of 1000 rpm. Different Artemin mAbs were first captured onto anti-human antibody (AHC) coated Octet biosensor tips (Fortebio Inc, #18-5064) by submerging the biosensor tips for 40 seconds in wells containing 2 μg/mL of Artemin mAb. […] All the Artemin and Artemin mAb samples were prepared in HBS-EBT buffer. The real-time binding response was monitored during the entire course of the experiment and the binding response at the end of every step was recorded.

[5] = target: T3, mArtemin-MMH (mouse); test: as above
T3 construct: also called msArtemin-MMH; msARTN.mmh
T3 chain: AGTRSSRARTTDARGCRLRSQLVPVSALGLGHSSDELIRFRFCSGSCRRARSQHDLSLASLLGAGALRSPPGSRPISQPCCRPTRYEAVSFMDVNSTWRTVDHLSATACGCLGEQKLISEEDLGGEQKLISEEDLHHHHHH
Description: as §5

[6] = target: T2, hArtemin-MMH; test: as above
Description: as §5

[7] = target: T3, mArtemin-MMH; test: blocking ELISA, antibody blocks 150 pM msARTN.mmh binding to plate-coated hGFRa3.hFc
Description: as §1, §2

[8] = target: T1, MfArtemin-MMH; test: BLI (Octet HTX), mAb captured on AHC tips, artemin at 7.5 nM, 25 C
Description: as §5

[9] = target: T3, mArtemin-MMH; test: as above
Description: as §5

[10] = target: T2, hArtemin-MMH; test: as above
Description: as §5

[11] = target: T3, mArtemin-MMH; test: SPR Biacore T200, mArtemin-MMH captured by anti-myc mAb, mAb injected, 25 C
Description: as §3, §4

% Blocking with 100 nM Ab [1]: 90%
IC50 [1]: 0.105 nM
60 nM Artemin mAb Bound (RU) [2]: 5 RU
Kd [2]: 1.51 nM
koff [2]: 0.000199 s⁻¹
kon [2]: 131000 M⁻¹ s⁻¹
t½ [2]: 58 min
% Blocking with 100 nM Ab [3]: 88%
IC50 [3]: 0.38 nM
Artemin Binding Response (nm) [4]: 0 nm
Artemin Binding Response (nm) [5]: 0.03 nm
Artemin Binding Response (nm) [6]: 0.02 nm
% Blocking with 100 nM Ab [7]: 83%
Artemin Binding Response (nm) [8]: 0.01 nm
Artemin Binding Response (nm) [9]: 0.07 nm
Artemin Binding Response (nm) [10]: 0.07 nm
60 nM Artemin mAb Bound (RU) [11]: 7 RU
Kd [11]: 0.346 nM
koff [11]: 5.4e-05 s⁻¹
kon [11]: 156000 M⁻¹ s⁻¹
t½ [11]: 214 min
B1: H4H33331P (antibody, human IgG4 S228P, kappa, V domains shown)
VH: EVQLVESGGDLVQPGGSLKLSCAASGFTFSGSAMHWVRQASGKGLEWVGRIRNKVHRYATEYGASVKGRFTISRDDSKNTAYLQMNSLKIEDTAVYYCVVVVPGSIEAFDIWGQGTMVTVSS
VL: DIQMTQSPSSLSASVGDRVTITCRASQSISTYLNWYQQKPGKAPNLLIYAASTLESGVPSRFSGSGSGTDFTLTISSLQPEDFEIYYCQQSYNIPWTFGQGTKVEIKR
notes: Fully human antibody (human variable and constant domains) from a VELOCIMMUNE mouse; also called Artemin mAb; anti-ARTN antibody

% Blocking with 100 nM Ab [1]: 86%
60 nM Artemin mAb Bound (RU) [2]: 11 RU
Kd [2]: 0.111 nM
koff [2]: 2.3e-05 s⁻¹
kon [2]: 207000 M⁻¹ s⁻¹
t½ [2]: 502 min
% Blocking with 100 nM Ab [3]: 93%
IC50 [3]: 0.161 nM
Artemin Binding Response (nm) [4]: 0.01 nm
Artemin Binding Response (nm) [5]: 0.01 nm
Artemin Binding Response (nm) [6]: 0.03 nm
% Blocking with 100 nM Ab [7]: 81%
IC50 [7]: 0.41 nM
Artemin Binding Response (nm) [8]: 0.01 nm
Artemin Binding Response (nm) [9]: 0 nm
Artemin Binding Response (nm) [10]: 0.05 nm
60 nM Artemin mAb Bound (RU) [11]: 3 RU
B2: H4H33336P (antibody, human IgG4 S228P, kappa, V domains shown)
VH: QVQLVESGGGVVQPGRSLRLSCVASGFILSHYGMHWVRQAPGKGLEWVAVIWFDGTNKYYADSVKGRFTVSRDNSKNTLYMQMNSLRAEDTAVYYCARDPPPARRGNYNGMDVWGQGTTVTVSS
VL: DIQMTQSPSSLSASVGDRVTITCRASQDIRNDLGWYQQKPGKAPKRLIFGASSLQSGVPLRFSGSGSGTEFTLTINNLQPEDFATFYCLQDNSYPWTFGQGTKVEIKR
notes: Fully human antibody; also called Artemin mAb; anti-ARTN antibody

% Blocking with 100 nM Ab [1]: 88%
60 nM Artemin mAb Bound (RU) [2]: 14 RU
Kd [2]: 0.21 nM
koff [2]: 9.6e-05 s⁻¹
kon [2]: 457000 M⁻¹ s⁻¹
t½ [2]: 120 min
% Blocking with 100 nM Ab [3]: 95%
IC50 [3]: 0.128 nM
Artemin Binding Response (nm) [4]: 0.02 nm
Artemin Binding Response (nm) [5]: 0.07 nm
Artemin Binding Response (nm) [6]: 0.07 nm
% Blocking with 100 nM Ab [7]: 88%
Artemin Binding Response (nm) [8]: 0.04 nm
Artemin Binding Response (nm) [9]: 0.11 nm
Artemin Binding Response (nm) [10]: 0.11 nm
60 nM Artemin mAb Bound (RU) [11]: 20 RU
Kd [11]: 0.113 nM
koff [11]: 5.91e-05 s⁻¹
kon [11]: 521000 M⁻¹ s⁻¹
t½ [11]: 195 min
B3: H4H33349P (antibody, human IgG4 S228P, kappa, V domains shown)
VH: QVQLVESGGGVVQPGRSLRLSCEASGFTFSDYDLHWVRQAPGKGLEWVAFISNDGSNEYYPKSVKGRFSISRDNSKNTLYLQMNSLRAEDTAVYHCTKERDYYYDSSGSLDYWGQGTLVTVSS
VL: DIQMTQSPSSLSASVGDRVTITCRASQTINNYLNWYQQKPGKAPKLLIYTTSGLQSGVPSRFSGRGSGTDFTLAISSLQPEDFATYYCQQSYHSPFTFGPGTKVDIKR
notes: as for B2
